Laboratory results: article doi:10.1101/2021.04.13.439745

Biological target: T1, Pil1-mCherry-Atg38(161-190) (S. pombe), O94427
T1 chain: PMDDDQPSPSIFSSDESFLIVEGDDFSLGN
Conditions: remark: other sources report otherwise

B1: GFP-Atg8^(P52A R67A), O94272 1-116 (natural protein)
chain: MRSQFKDDFSFEKRKTESQRIREKYPDRIPVICEKVDKSDIAAIDKKKYLVASDLTVGQFVYVIRKAIKLSPEKAIFIFIDEILPPTAALMSTIYEEHKSEDGFLYITYSGENTFG
In the case of B1, the PCC (Pearson correlation coefficient of colocalisation) is reported as 0.42.
